Measurements published in US20030086940A1.

Tests used:
porcine CD86 (porcine) = test: cell-based or functional assay
[1] = molecular target: human CTLA4-human CD59 chimeric molecule with a human CD59 leader sequence and an (AS)3 linker (human); test: flow cytometry, PAEC HT 48-hCCl (low hCTLA4-hCD59); mean ± SE, n=4
[2] = molecular target: human CTLA4-human CD59 chimeric molecule with a human CD59 leader sequence and an (AS)3 linker (human); test: flow cytometry, PAEC Control-hCCm (pig #51, medium hCTLA4-hCD59); mean ± SE, n=4
[3] = molecular target: human CTLA4-human CD59 chimeric molecule with a human CD59 leader sequence and an (AS)3 linker (human); test: flow cytometry, PAEC Control-hCCh (pig #51, high hCTLA4-hCD59); mean ± SE, n=4
[4] = molecular target: human CTLA4-human CD59 chimeric molecule with a human CD59 leader sequence and an (AS)3 linker (human); test: flow cytometry, PAEC HT 49-hCCm (medium hCTLA4-hCD59); mean ± SE, n=4
human CD28 (human) = human CD28 (human) (UniProt P10747); test: cell-based or functional assay
UniProt P10747, sequence (P10747 19-220): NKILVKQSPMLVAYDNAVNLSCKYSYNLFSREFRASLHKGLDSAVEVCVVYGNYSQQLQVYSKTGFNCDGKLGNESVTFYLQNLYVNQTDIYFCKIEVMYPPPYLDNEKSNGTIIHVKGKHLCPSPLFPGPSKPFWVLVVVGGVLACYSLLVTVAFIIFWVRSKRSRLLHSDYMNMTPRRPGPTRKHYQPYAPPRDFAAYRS

human CTLA4-human CD59 chimeric molecule with a human CD59 leader sequence and an (AS)3 linker (human), sequence (chain, as listed by the source mutant limits assumed): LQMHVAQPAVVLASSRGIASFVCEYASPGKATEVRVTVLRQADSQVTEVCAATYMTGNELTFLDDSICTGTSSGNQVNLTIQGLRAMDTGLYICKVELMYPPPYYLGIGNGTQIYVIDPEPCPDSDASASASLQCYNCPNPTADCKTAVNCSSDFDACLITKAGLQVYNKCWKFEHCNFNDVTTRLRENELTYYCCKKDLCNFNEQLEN

With “human CTLA4-human CD59 chimeric molecule with a human CD59 leader sequence and an (AS)3 linker” as the substance, how does the IL-2 secreted from Jurkat cells co-cultured with PI-PLC treated hCTLA4-hCD59 PAEC (porcine CD86 (porcine)) read?
The IL-2 secreted from Jurkat cells co-cultured with PI-PLC treated hCTLA4-hCD59 PAEC was 570 pg/mL.

And the IL-2 secreted from Jurkat cells co-cultured with hCTLA4-hCD59 PAEC (fold decrease) (porcine CD86 (porcine))?
Its IL-2 secreted from Jurkat cells co-cultured with hCTLA4-hCD59 PAEC (fold decrease) is 5.

Which mean fluorescence intensity [1] does the source give for “mouse monoclonal antibody BNI3 (Immunotech), specific for hCTLA4” here?
The mean fluorescence intensity was 10.2 MFI.

And the mean fluorescence intensity [2]?
Its mean fluorescence intensity is 101 MFI.

What about the mean fluorescence intensity [3] of the same substance?
Its mean fluorescence intensity is 112 MFI.

And the mean fluorescence intensity [4]?
The mean fluorescence intensity was 30.9 MFI.

porcine CD86 (ligand) was tested. Which IL-2 secreted from Jurkat cells co-cultured with vector control PAEC and PHA (ELISA) (human CD28 (human)) did it give?
The IL-2 secreted from Jurkat cells co-cultured with vector control PAEC and PHA (ELISA) was 400 pg/mL.
